T1: recombinant cynomolgus monkey C5 (cynomolgus monkey, UniProt P01031 19-1676 (human entry), limits assumed)
T1 construct: also called cynoC5
T1 chain: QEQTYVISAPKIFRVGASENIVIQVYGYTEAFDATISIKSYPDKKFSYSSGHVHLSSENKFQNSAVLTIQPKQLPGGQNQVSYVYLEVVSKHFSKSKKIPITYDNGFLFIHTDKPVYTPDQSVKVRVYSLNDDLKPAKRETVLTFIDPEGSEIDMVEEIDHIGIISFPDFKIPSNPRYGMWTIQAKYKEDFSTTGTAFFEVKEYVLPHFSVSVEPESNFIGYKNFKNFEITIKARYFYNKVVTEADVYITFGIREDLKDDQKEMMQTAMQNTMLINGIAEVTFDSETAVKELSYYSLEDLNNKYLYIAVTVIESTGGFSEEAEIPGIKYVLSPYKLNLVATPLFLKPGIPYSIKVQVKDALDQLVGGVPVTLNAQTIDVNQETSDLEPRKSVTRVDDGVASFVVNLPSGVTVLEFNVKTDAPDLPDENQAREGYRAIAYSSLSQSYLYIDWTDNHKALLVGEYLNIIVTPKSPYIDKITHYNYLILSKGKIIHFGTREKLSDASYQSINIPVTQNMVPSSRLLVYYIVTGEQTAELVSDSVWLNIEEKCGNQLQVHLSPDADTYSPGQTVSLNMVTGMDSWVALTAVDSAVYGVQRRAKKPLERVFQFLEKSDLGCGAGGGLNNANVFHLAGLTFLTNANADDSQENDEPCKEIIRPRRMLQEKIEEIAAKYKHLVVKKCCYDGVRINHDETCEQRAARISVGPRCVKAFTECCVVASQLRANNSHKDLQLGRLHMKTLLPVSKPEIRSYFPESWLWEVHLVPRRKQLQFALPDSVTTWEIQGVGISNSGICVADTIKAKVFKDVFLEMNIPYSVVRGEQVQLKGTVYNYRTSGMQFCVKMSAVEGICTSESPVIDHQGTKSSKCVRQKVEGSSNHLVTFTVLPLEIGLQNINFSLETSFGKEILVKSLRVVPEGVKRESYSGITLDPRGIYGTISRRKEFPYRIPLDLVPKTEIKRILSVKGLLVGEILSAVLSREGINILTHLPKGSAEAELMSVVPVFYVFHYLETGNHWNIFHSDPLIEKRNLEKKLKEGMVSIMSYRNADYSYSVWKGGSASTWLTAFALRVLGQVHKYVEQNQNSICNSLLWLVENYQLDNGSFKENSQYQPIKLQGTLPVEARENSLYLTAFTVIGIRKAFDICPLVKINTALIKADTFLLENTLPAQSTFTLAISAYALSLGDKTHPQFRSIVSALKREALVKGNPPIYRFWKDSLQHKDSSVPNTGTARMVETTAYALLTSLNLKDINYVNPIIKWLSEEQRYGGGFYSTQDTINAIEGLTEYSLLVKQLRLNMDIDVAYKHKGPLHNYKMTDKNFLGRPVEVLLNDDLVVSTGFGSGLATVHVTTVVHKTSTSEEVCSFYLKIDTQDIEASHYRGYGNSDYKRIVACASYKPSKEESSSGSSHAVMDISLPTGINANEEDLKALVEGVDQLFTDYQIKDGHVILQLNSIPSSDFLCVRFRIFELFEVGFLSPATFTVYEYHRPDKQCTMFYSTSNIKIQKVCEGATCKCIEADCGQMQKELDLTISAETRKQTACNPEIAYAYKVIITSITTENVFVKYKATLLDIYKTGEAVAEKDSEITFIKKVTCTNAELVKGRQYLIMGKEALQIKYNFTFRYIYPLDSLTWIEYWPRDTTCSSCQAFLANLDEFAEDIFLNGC


Key:
recombinant human C5 [1] = molecular target: T2, recombinant human C5 (human, UniProt P01031 20-1676); experiment: SPR (BIACORE T200), ratio of kd of condition (2) and (1)
T2 construct: The same entry is used here for C5 in normal human serum in the functional rows; also called hC5; rhC5

[2] = molecular target: T1, recombinant cynomolgus monkey C5; experiment: SPR (BIACORE T200), antibody captured by ProA/G, recombinant cynoC5 injected, 37 degrees C, pH7.4
recombinant human C5 [3] = molecular target: T2, recombinant human C5; experiment: SPR (BIACORE T200), antibody captured by ProA/G, recombinant human C5 injected, 37 degrees C, pH5.8; pH 5.8
recombinant human C5 [4] = molecular target: T2, recombinant human C5; experiment: SPR (BIACORE T200), antibody captured by ProA/G, recombinant human C5 injected, 37 degrees C, pH7.4; pH 7.4

pH dependency (ratio of dissociation rate at pH5.8 to that at pH7.4) (recombinant human C5 [1])	koff [2] [s⁻¹]	kon [2] [M⁻¹ s⁻¹]	koff (recombinant human C5 [3]) [s⁻¹]	kon (recombinant human C5 [3]) [M⁻¹ s⁻¹]	koff (recombinant human C5 [4]) [s⁻¹]	kon (recombinant human C5 [4]) [M⁻¹ s⁻¹]	Binder
21.1							305LO16-SG422 (antibody, V domains shown) VH: QVQLVESGGGLVQPGRSLRLSCAASGFTVHSSYYMAWVRQAPGKGLEWVGAIFTGSGAEYKAEWVKGRFTISRDNSKNTLYLQMNSLRAEDTAVYYCASDAGYDYPTHAMHYWGRGTLVTVSS VL: DIQMTQSPSSLSASVGDRVTITCRASQGISSSLAWYQQKPGKAPKLLIYGASETESGVPSRFSGSGSGTDFTLTISSLQPEDFATYYCQNTKVGSSYGNTFGGGTKVEIKR
	0.00185	641000	0.00978	71100	0.000183	523000	CFA0672 (antibody, V domains shown) VH: QSVEESGGRLVTPGTPLTLTCTASGFSLSGNAINWVRQAPGKGLEWIGCIYTGSDTTYYATWAKGRFTISKTSTTVDLKIASPTTEDTATYFCARGSGLWGPGTLVTVSS VL: DVVMTQTPASVSAPVGGTVTIKCQASQNIYSLLAWYQQKPGQPPKLLIYHTSDLASGVPSRFRGSGSGTEFTLTISDLECADAATYYCQCTAYGSSDVGGTFGGGTTVVVE
	0.00067	12100	0.0183	42700	0.000589	38200	CFA0305 (antibody, V domains shown) VH: QSLEESGGDLVKPGASLAVTCTASGFSSSSSYYMCWVRQAPGKGLEWIGCIYTGSGATYYASWAKGRFTISKTSSTTVTLQMTSLTVADTATYFCASDGGYVTPTHAMYLWGPGTLVTVSS VL: DVVMTQTPASVSAAVGGTVTIKCQASQNIGSDLAWYQQKPGQPPRLLIYGASKLASGVSSRFSGSGSGKEFTLTISDLECADAVTYYCQCTFVGSSYGNAFGGGTEVVVK
			0.000224	1.22e+06	0.000202	1.66e+06	CFA0330 (antibody, V domains shown) VH: QSLEESGGDLVEPGASLTLTCTASGFSWNSGYDMCWVRQAPGKGLEWIACIYTGSSANTAYANWAKGRFTISKTSSTTVTLQMTGLTAADTATYFCARHDDYFFDLWGPGTLVTVSS VL: DVVMTQTPASVSESVGGTVTINCQASQSIGNNLAWYQQKPGQPPKLLIYDASNLASGVPSRFKGSRSGTEPTLTNTLTISGVQCADVATYYCQSGWYGNSYVAAFGGGTEVVVKR
	0.000493	314000	0.00939	282000	0.000626	365000	CFA0666 (antibody, V domains shown) VH: QSVEESGGRLVTPGTPLTLTCTVSGFSLSTYAMGWVRQAPGKGLEWIGTIDTGDNSFYANWAKGRFTISKTSTTVDLKITSPTAEDTATYFCARNDGSVYNLFNLWGPGTLVTVSS VL: DVVMTQTPASVSAAVGGTVTIKCQASENIYSALSWYQQKPGLRPRLLIYYASTLASGVPSRFKGSRSGTEFTLTISDLECADAATYYCQQYYDINSVDNTFGGGTKVVVE
	0.000378	294000	0.00661	389000	0.000412	383000	CFA0675 (antibody, V domains shown) VH: QSVEESGGRLVTPGTPLTLTCTVSGFSLSTYAMGWVRQAPGKGLEWIGTIDTGDNSFYANWAKGRFTISRTSTTVDLKITSPTAEDTATYFCARNDGSVYNLFNLWGPGTLVTVSS VL: DVVMTQTPASVSAAVGGTVTIKCQASENIYSALSWYQQKPGLRPRLLIYYASTLASGVPSRFKGSRSGTEFTLTISDLECADAASYYCQQYYDINSVDNTFGGGTKVVVE
	0.00235	542000	0.0373	454000	0.00281	474000	CFA0599 (antibody, V domains shown) VH: QSVEESGGRLVTPGTPLTLTCTVSGLSLSDNTMTWVRQAPGKGLEWIGIISFGGDAYYASWAKGRFPISKTSTTVDLRITSPTTEDTATYFCARVGAGNIFWYFDLWGPGTLVTVSS VL: AYDMTQTPASVEVSVGGTVTIKCQASESIYSALAWYQQKPGQPPKLLIYSASTLASGVPSRFKGSGSGTEYTLTISDLECADAATYYCQQYYSSTNVHNSFGGGTTVVVE
	0.00223	290000	0.0334	204000	0.00263	324000	CFA0307 (antibody, V domains shown) VH: QSLEESGGGLVKPGASLTLTCKASGIDFSNFYYICWVRQAPGKGLDLIACIYTVSGYTYYASWAKGRLTISKTSSTTVTLQMTSLTAADTATYFCARDLHAGITNLWGPGTLVTVSS VL: AIEMTQTPFSVSAAVGGTVTIKCQASQNIYSNLAWYQQKPGQRPKLLIYGASNLESGVPSRFKGSGSGTEYTLTISDLECADAATYYCLQGYSYSNVDDAFGGGTEVVVK
	0.00904	504000	0.0703	935000	0.00934	1.04e+06	CFA0366 (antibody, V domains shown) VH: QSLEESGGDLVKPGASLSLTCTAAGLDFSSSYYMCWVRQAPGKGLEWIACIYAGSSGIIYYANWAKGRFTISRPSSTTVTLQMTSLTAADTATYFCATYPTYGDGGHAFNLWGPGTLVTVSS VL: AQVLTQTPSSVSAAVGGTVTINCQSSQSVYSSDYLSWYQQKPGQPPKLLIYEASKLASGVPPRFSGSGSGTQFTLTISGVQCDDAATYYCQGTYYSSGWYFAFGGGTEVVVK
			7.39e-05	1.24e+06	9.77e-05	628000	CFA0341 (antibody, V domains shown) VH: QSVEESGGRLVTPGTPLTLTCTVSGIDLSSYTMGWVRQAPGKGLECIGYIHSFGSTYYASWAKGRFTISKTSTTVDLEITSPTTEDTATYFCARDVGGSSGWDLWGQGTLVTVSS VL: DVVMTQTPSSVSAAVGGTVTIKCQASENIYSNLAWYQQKPGQPPKRLIYDASDLASGVPSRFSGSGYGTQFTLTISGVQCEDAATYYCQANYDSTSSSFGNVFGGGTEVVVK
	0.00156	266000	0.0262	150000	0.00169	474000	CFA0501 (antibody, V domains shown) VH: QSVEESGGRLVTPGTPLTLTCTASGFSLSSYYMNWVRQAPGKGLEWIGMIYGSGATYYASWAKGRFTISKTSSTTVDLKMTSLTTEDTATYFCARQIYSGDNNDNFWGPGTLVTVSS VL: AYDMTQTPASVEVAVGGTVTINCQASESISNWLAWYQQKPGQRPKLLIYRASTLASGVSSRFKGSGSGTQFTLTISGVECDDAATYYCQQDYSSSNVDNTFGGGTKVVVE
	0.00166	305000	0.0301	122000	0.00185	473000	CFA0538 (antibody, V domains shown) VH: QSVEESGGRLVTPGTPLTLTCTASGFSLSSYYMNWVRQAPGKGLEWIGMIYGSGATYYASWAKGRFTISKTSSTTVDLKMTSLTTEDTATYFCARQIYSGDNNDNFWGPGTLVTVSS VL: AYDMTQTPASVEVAVGGTVTINCQASESISNWLAWYQQKPGQRPKLLIYRASTLASGVSSRFKGSGSGTQFTLTISGVECDDAATYYCQQDYSSSNVDNTFGGGTTVVVE

Source: patent publication EP4785956A2 (CHUGAI SEIYAKU KABUSHIKI KAISHA, dated 2026)
